Measured values taken from article PMC11480844 (2024).

B1: H2-Kb / Ed16-30 (parent complex)
chain 1: GEQVEQRPPHLSVREGDSAVIICTYTDPNSYYFFWYKQEPGAGLQLLMKVFSSTEINEGQGFTVLLNKKDKQLSLNLTAAHPGDSAVYFCAVSEPSSGQKLVFGQGTILKVYL
chain 2: EAAVTQSPRNKVAVTGGKVTLSCNQTNNHNNMYWYRQDTGHGLRLIHYSYGAGSTEKGDIPDGYKASRPSQENFSLILELATPSQTSVYFCAGRDTGQLYFGEGSKLTVL
chain 3: not shown
chain 4: IQKTPQIQVYSRHPPENGKPNILNCYVTQFHPPHIEIQMLKNGKKIPKVEMSDMSFSKDWSFYILAHTEFTPTETDTYACRVKHDSMAEPKTVYWDRDM
chain 5: SIINFEKL
B2: H2-Kb / Ed31 (parent complex)
chain 1: GQQVQQSPASLVLQEGENAELQCNFSTSLNSMQWFYQRPGGSLVSLFYNPSGTKHSGRLTSTTVIKERRSSLHISSSQTTDSGTYLCALEGNYAQGLTFGLGTRVSVFP
chain 2: ETAVFQTPNYHVTQVGNEVSFNCKQTLGHDTMYWYKQDSKKLLKIMFSYNNKQLIVNETVPRRFSPQSSDKAHLNLRIKSVEPEDSAVYLCASRSAGEQYFGPGTRLTVL
chain 3: not shown
chain 4: B1 chain 4
chain 5: SIINFEKL

Variants of: B1
Assay: % of reporter cells activated (NFAT-GFP), raw
Note: test concentration or dose not given here.

Compared with chain 5 L8V, chain 5 L8D is lower in ratio to parent: 1 for the first, 0.715 for the second.

First: chain 5 L8W
Second: chain 5 L8E
The ratio to parent of the first is higher: 0.929 for the first, 0.823 for the second.

Going from chain 5 I2R to chain 5 I2W, the ratio to parent falls from 0.968 to 0.866.

First: chain 5 I2F
Second: chain 5 I2C
The ratio to parent of the first is lower: 1.08 for the first, 1.12 for the second.

First: chain 5 E6V
Second: chain 5 E6W
The ratio to parent of the first is lower: 0.0227 for the first, 0.422 for the second.

Going from chain 5 I3L to chain 5 I3E, the ratio to parent falls from 1.03 to 0.45.

Going from chain 5 N4Y to chain 5 S1I, the ratio to parent rises from 0.0322 to 0.323.

Compared with chain 5 K7R, chain 5 K7M is lower in ratio to parent: 1.17 for the first, 0.57 for the second.

First: chain 5 K7N
Second: chain 5 K7Q
The ratio to parent of the first is higher: 0.305 for the first, 0.297 for the second.

First: chain 5 K7F
Second: chain 5 F5T
The ratio to parent of the first is lower: 0.106 for the first, 1.23 for the second.

Compared with chain 5 F5S, chain 5 F5W is lower in ratio to parent: 1.19 for the first, 1.03 for the second.

Going from chain 5 F5A to chain 5 F5D, the ratio to parent falls from 1.21 to 0.85.

Variants of: B2
Assay: % of reporter cells activated (NFAT-GFP), raw

First: chain 5 S1V
Second: chain 5 S1H
The ratio to parent of the first is lower: 0.551 for the first, 1.04 for the second.

Compared with chain 5 S1Y, chain 5 S1A is lower in ratio to parent: 0.934 for the first, 0.803 for the second.

First: chain 5 S1E
Second: chain 5 S1G
The ratio to parent of the first is lower: 0.561 for the first, 1.04 for the second.

Going from chain 5 S1I to chain 5 S1C, the ratio to parent falls from 0.676 to 0.44.

Compared with chain 5 S1P, chain 5 S1R is lower in ratio to parent: 0.658 for the first, 0.532 for the second.

Going from chain 5 S1L to chain 5 S1K, the ratio to parent rises from 0.46 to 0.757.

Going from chain 5 S1T to chain 5 S1D, the ratio to parent falls from 0.99 to 0.504.

Compared with chain 5 S1F, chain 5 E6I is lower in ratio to parent: 0.459 for the first, 0.000832 for the second.

Compared with chain 5 E6K, chain 5 E6S is lower in ratio to parent: 0.777 for the first, 0.00329 for the second.

Going from chain 5 E6C to chain 5 E6T, the ratio to parent falls from 0.00242 to 0.00208.

Going from chain 5 E6Q to chain 5 E6H, the ratio to parent rises from 0.111 to 0.174.

First: chain 5 E6G
Second: chain 5 E6L
The ratio to parent of the first is higher: 0.435 for the first, 0.0037 for the second.

First: chain 5 E6V
Second: chain 5 E6Y
The ratio to parent of the first is lower: 0.00379 for the first, 0.0864 for the second.

First: chain 5 E6W
Second: chain 5 E6D
The ratio to parent of the first is lower: 0.00233 for the first, 0.458 for the second.

Compared with chain 5 E6N, chain 5 E6P is lower in ratio to parent: 0.0136 for the first, 0.0101 for the second.

Compared with chain 5 E6F, chain 5 L8R is higher in ratio to parent: 0.0115 for the first, 0.791 for the second.

Compared with chain 5 L8W, chain 5 L8M is higher in ratio to parent: 0.766 for the first, 0.945 for the second.

First: chain 5 L8K
Second: chain 5 L8N
The ratio to parent of the first is higher: 0.854 for the first, 0.69 for the second.

Compared with chain 5 L8S, chain 5 L8Y is higher in ratio to parent: 0.762 for the first, 0.922 for the second.

First: chain 5 L8D
Second: chain 5 L8Q
The ratio to parent of the first is lower: 0.549 for the first, 0.876 for the second.

Going from chain 5 L8I to chain 5 L8A, the ratio to parent falls from 0.968 to 0.898.

First: chain 5 L8F
Second: chain 5 L8H
The ratio to parent of the first is higher: 0.891 for the first, 0.802 for the second.

First: chain 5 L8T
Second: chain 5 L8G
The ratio to parent of the first is higher: 0.862 for the first, 0.711 for the second.

First: chain 5 K7I
Second: chain 5 K7S
The ratio to parent of the first is lower: 0.176 for the first, 0.614 for the second.

Compared with chain 5 K7W, chain 5 K7N is lower in ratio to parent: 0.542 for the first, 0.185 for the second.

Going from chain 5 K7Q to chain 5 K7A, the ratio to parent rises from 0.146 to 0.41.

Going from chain 5 K7V to chain 5 K7Y, the ratio to parent falls from 0.247 to 0.167.

First: chain 5 K7R
Second: chain 5 K7H
The ratio to parent of the first is higher: 0.698 for the first, 0.323 for the second.

Going from chain 5 K7G to chain 5 K7C, the ratio to parent rises from 0.186 to 0.747.

First: chain 5 K7L
Second: chain 5 K7P
The ratio to parent of the first is lower: 0.141 for the first, 0.298 for the second.

First: chain 5 K7D
Second: chain 5 K7T
The ratio to parent of the first is higher: 0.167 for the first, 0.102 for the second.

First: chain 5 K7F
Second: chain 5 K7E
The ratio to parent of the first is higher: 0.0347 for the first, 0.0194 for the second.

First: chain 5 I3E
Second: chain 5 I3L
The ratio to parent of the first is lower: 0.499 for the first, 1.02 for the second.

Going from chain 5 I3N to chain 5 I3S, the ratio to parent rises from 0.225 to 0.38.

Compared with chain 5 I3G, chain 5 I3Q is lower in ratio to parent: 0.309 for the first, 0.272 for the second.

First: chain 5 I3T
Second: chain 5 I3M
The ratio to parent of the first is lower: 0.548 for the first, 0.563 for the second.

Compared with chain 5 I3Y, chain 5 I3C is higher in ratio to parent: 0.0382 for the first, 0.555 for the second.

Compared with chain 5 I3H, chain 5 I3K is higher in ratio to parent: 0.183 for the first, 0.735 for the second.

Going from chain 5 I3R to chain 5 I3F, the ratio to parent falls from 0.0501 to 0.0484.

Going from chain 5 I3P to chain 5 I3A, the ratio to parent falls from 0.894 to 0.523.

First: chain 5 F5K
Second: chain 5 F5T
The ratio to parent of the first is lower: 0.509 for the first, 0.956 for the second.

Compared with chain 5 F5Y, chain 5 F5P is lower in ratio to parent: 1.11 for the first, 0.261 for the second.

Compared with chain 5 F5Q, chain 5 F5A is higher in ratio to parent: 0.49 for the first, 0.866 for the second.

Going from chain 5 F5C to chain 5 F5I, the ratio to parent falls from 0.68 to 0.496.

First: chain 5 F5N
Second: chain 5 F5R
The ratio to parent of the first is lower: 0.525 for the first, 0.635 for the second.

Going from chain 5 F5S to chain 5 F5E, the ratio to parent falls from 0.753 to 0.407.

First: chain 5 F5D
Second: chain 5 N4C
The ratio to parent of the first is higher: 0.536 for the first, 0.031 for the second.

First: chain 5 N4A
Second: chain 5 N4S
The ratio to parent of the first is higher: 0.0503 for the first, 0.00781 for the second.

Compared with chain 5 N4Y, chain 5 N4I is higher in ratio to parent: 0.242 for the first, 0.484 for the second.

Compared with chain 5 N4K, chain 5 N4D is lower in ratio to parent: 0.0359 for the first, 0.00288 for the second.

First: chain 5 N4Q
Second: chain 5 N4T
The ratio to parent of the first is higher: 0.583 for the first, 0.156 for the second.

Going from chain 5 N4P to chain 5 N4R, the ratio to parent rises from 0.0223 to 0.0703.

Going from chain 5 N4W to chain 5 N4L, the ratio to parent falls from 0.42 to 0.198.

Going from chain 5 N4M to chain 5 N4E, the ratio to parent falls from 0.207 to 0.0188.

First: chain 5 N4V
Second: chain 5 N4G
The ratio to parent of the first is higher: 0.132 for the first, 0.083 for the second.

First: chain 5 N4H
Second: chain 5 I2D
The ratio to parent of the first is lower: 0.0784 for the first, 0.962 for the second.

Going from chain 5 I2E to chain 5 I2V, the ratio to parent falls from 1.11 to 1.07.

Compared with chain 5 I2A, chain 5 I2F is lower in ratio to parent: 1.18 for the first, 0.795 for the second.

First: chain 5 I2K
Second: chain 5 I2S
The ratio to parent of the first is lower: 0.818 for the first, 1.12 for the second.

Compared with chain 5 I2H, chain 5 I2Y is lower in ratio to parent: 0.832 for the first, 0.658 for the second.

First: chain 5 I2T
Second: chain 5 I2L
The ratio to parent of the first is lower: 1.09 for the first, 1.12 for the second.

Compared with chain 5 I2N, chain 5 I2P is higher in ratio to parent: 0.832 for the first, 0.972 for the second.

Compared with chain 5 I2G, chain 5 I2M is lower in ratio to parent: 1.11 for the first, 1.07 for the second.
